Laboratory results from US20100215619A1.

Experiments:
[1] = target: HLA-DRB4*0101 (human); experiment: competition binding; conditions: modification not given
[2] = target: HLA-DRB1*0101 (human); experiment: competition binding; conditions: modification not given

| IC50 [1] | IC50 [2] | Binder |
| --- | --- | --- |
| 90 µM |  | VGYVDDTQFVRFDSD [p6] |
|  | 0.456 µM | GTLRGYYNQSEAGSH [p15] |
